Test results taken from US20070021348.
Numbering of substitutions follows the chain as printed. Numbers in names are those of the source.

B1: Asp 2 (transiently expressed from pcDNA3.1aMycHis) (protein)
chain: ETDEEPEEPGRRGSFVEMVDNLRGKSGQGYYVEMTVGSPPQTLNILVDTGSSNFAVGAAPHPFLHRYYQRQLSSTYRDLRKGVYVPYTQGKWEGELGTDLVSIPHGPNVTVRANIAAITESDKFFINGSNWEGILGLAYAEIARPDDSLEPFFDSLVKQTHVPNLFSLQLCGAGFPLNQSEVLASVGGSMIIGGIDHSLYTGSLWYTPIRREWYYEVIIVRVEINGQDLKMDCKEYNYDKSIVDSGTTNLRLPKKVFEAAVKSIKAASSTEKFPDGFWLGEQLVCWQAGTTPWNIFPVISLYLMGEVTNQSFRITILPQQYLRPVEDVATSQDDCYKFAISQSSTGTVMGAVIMEGFYVVFDRARKRIGFAVSACHVHDEFRTAAVEGPFVTLDMEDCGYNIPQTDESTLMTIAYVMAAICALFMLPLCLMVCQWRCLRCLRQQHDDFADDISLLK
B2: Asp 2 active site mutant D289N (protein)
chain: B1 chain with D244N
B3: Asp 2 active site mutant D93N (protein)
chain: B1 chain with D48N

Target: human APP isoform 695 (in SH-SY5Y APP695 cells), P05067
Sequence (P05067 whole entry, looked up, canonical isoform): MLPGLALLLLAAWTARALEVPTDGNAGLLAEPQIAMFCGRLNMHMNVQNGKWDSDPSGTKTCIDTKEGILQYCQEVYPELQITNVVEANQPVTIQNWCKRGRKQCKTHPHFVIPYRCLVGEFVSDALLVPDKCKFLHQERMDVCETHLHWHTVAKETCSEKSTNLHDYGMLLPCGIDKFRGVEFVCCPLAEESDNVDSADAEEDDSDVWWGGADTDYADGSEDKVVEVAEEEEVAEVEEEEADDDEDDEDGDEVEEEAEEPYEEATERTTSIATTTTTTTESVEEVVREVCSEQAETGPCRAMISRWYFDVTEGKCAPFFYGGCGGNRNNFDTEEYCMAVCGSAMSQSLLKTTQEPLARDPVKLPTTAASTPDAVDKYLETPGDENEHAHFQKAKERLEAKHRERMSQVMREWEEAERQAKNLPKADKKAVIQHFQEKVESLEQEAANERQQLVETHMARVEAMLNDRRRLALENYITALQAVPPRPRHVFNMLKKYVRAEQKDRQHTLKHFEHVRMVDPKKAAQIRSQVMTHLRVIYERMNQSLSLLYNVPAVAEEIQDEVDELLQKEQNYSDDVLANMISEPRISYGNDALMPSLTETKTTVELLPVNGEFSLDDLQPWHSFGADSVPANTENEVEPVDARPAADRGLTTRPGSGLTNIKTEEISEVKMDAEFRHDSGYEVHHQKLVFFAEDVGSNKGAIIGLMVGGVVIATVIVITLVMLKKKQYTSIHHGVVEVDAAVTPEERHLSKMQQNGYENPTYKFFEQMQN

Row | Protein | sAPPβ (110 kDa) in media, Western blot | sAPPβ in media, Western blot
1 | B1 | An increase in sAPPβ (110 kDa) was observed in the media from Asp 2 transfected cells compared to empty vector pcDNA3.1MycHis transfected control cells | –
2 | B2 | – | There was no increase in sAPPβ secreted from cells transfected with either of the Asp-Asn mutants D93N or D289N
3 | B3 | – | There was no increase in sAPPβ secreted from cells transfected with either of the Asp-Asn mutants D93N or D289N
